Laboratory results taken from patent US20220119488A1, “BICYCLIC PEPTIDE LIGANDS SPECIFIC FOR INTEGRIN ALPHA-V-BETA-3” (priority 2019, published 2022).
Numbered stars: 1 amine (or outer) side, 2 acyl side, 3 side chain; on linkers, the order of the positions; unused ones are H or OH. Bridge positions count the residues as written; N and C are the ends. Square brackets hold non-standard residues; d marks the D form. Ends that are not written are not given here. TBMB = c1c(C[*:1])cc(C[*:3])cc1C[*:2]; Fl = fluorescein; Sar = CNCC(=O)O

B1: BCY2572 (peptide)
peptide: ACLDHMECRGDMDCAXXXXXXK
modifications: Sar6 (six sarcosines); fluorescein (Fl) on the C-terminal K; Ci, Cii and Ciii bound to the TBMB scaffold
notes: Fluorescent bicyclic peptide
B2: BCY2577 (peptide)
peptide: Ac-CILRPNCDLDGRCA[Sar][Sar][Sar][Sar][Sar][Sar]K
modifications: linker 1-7-13 via TBMB; not fully specified (residue 21); also: Fl on the C-terminal K
notes: Fluorescent bicyclic peptide

Assays:
[1] = molecular target: T1, human integrin αvβ3 (human, UniProt P06756 31-992; P05106 27-718, limits assumed); experiment: human FP direct binding; column 'Mean', n=9
[2] = molecular target: T1, human integrin αvβ3; experiment: human FP direct binding; column 'Mean', n=2
[3] = molecular target: T1, human integrin αvβ3; experiment: human FP direct binding; n=2

T1 sequence (P06756 31-992 limits assumed, chain 1 of 2): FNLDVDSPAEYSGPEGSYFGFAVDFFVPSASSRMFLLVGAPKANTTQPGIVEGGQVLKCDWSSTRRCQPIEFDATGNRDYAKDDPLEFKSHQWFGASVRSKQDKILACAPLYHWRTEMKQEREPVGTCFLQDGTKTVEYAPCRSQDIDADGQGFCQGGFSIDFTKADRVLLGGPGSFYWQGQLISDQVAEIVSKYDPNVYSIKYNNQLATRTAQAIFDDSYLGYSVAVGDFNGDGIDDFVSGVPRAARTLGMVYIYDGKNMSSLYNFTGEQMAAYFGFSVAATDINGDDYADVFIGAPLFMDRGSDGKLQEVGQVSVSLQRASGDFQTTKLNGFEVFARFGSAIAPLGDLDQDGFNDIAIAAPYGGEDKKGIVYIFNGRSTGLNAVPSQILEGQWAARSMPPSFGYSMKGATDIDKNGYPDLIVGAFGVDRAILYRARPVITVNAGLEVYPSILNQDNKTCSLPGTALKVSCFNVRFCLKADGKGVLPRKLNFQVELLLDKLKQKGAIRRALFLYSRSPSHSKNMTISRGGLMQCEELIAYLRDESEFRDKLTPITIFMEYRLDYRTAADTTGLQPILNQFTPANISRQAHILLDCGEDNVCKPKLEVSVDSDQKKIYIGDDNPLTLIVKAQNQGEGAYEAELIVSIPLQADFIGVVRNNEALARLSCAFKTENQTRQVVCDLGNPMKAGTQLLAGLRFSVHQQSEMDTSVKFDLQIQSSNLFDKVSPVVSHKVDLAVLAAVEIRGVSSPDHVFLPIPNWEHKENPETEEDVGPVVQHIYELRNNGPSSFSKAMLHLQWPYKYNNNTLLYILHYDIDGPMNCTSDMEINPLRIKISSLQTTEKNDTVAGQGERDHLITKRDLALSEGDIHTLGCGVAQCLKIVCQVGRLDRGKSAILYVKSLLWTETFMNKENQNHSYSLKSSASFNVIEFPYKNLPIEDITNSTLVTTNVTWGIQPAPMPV
T1 sequence (P05106 27-718 limits assumed, chain 2 of 2): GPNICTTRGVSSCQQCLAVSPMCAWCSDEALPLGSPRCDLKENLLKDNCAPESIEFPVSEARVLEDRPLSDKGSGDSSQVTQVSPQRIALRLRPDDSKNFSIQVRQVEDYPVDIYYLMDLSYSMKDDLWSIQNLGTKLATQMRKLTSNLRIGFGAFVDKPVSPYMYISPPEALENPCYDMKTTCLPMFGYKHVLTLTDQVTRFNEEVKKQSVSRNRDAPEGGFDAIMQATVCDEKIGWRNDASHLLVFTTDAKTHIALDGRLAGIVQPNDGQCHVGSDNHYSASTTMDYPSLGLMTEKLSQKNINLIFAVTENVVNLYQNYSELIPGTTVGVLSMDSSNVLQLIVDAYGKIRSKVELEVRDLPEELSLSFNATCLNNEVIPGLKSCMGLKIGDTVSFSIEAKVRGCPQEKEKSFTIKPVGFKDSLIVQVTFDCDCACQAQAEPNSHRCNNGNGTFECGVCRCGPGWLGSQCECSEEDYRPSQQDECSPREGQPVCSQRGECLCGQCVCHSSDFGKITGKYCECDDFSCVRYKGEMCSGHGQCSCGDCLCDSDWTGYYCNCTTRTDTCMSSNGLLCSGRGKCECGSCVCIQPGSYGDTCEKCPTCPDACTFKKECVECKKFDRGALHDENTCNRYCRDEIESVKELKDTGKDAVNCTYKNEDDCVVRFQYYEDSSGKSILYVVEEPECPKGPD

| Binder | Kd [1] [nM] | Kd [2] [nM] | Kd [3] [nM] |
| --- | --- | --- | --- |
| B1 | 9 |  |  |
| Fl-G[Sar][Sar][Sar][Sar][Sar]ACLDHMECRGDMDC (linker 8-14-20 via TBMB, Fluorescent bicyclic peptide) [BCY2573] |  | 1 | 1 |
| B2 |  | 2 | 2 |
